Measurements taken from PMC9131872.

Target: African swine fever virus (ASFV) decapping enzyme g5R protein, recombinant wild type (residues 1 to 250) (African swine fever virus (ASFV)) (UniProt P32092)
Test: cross-linking

Q: “African swine fever virus (ASFV) decapping enzyme g5R protein, recombinant wild type (residues 1 to 250) (from UniProt P32092 1-250)” was tested. Which stoichiometry N did it give?
A: 2
